Source: publication PMC8878492
“And” between values parts separate entries of the source, which are not always exact repeats. Identical values can stand only once.

Assays:
[1] = biological target: HAdV-D26 penton base (human adenovirus D26 (HAdV-D26)); assay: cryo-EM structure
[2] = biological target: HAdV-D26 hexon (human adenovirus D26 (HAdV-D26)); assay: cryo-EM structure

Substance | stoichiometry N [1] [subunits] | stoichiometry N (copies of pVIn in a hexon) [2]
HAdV-D26 penton base (natural protein) | 5 | –
cleaved N-terminal fragment of HAdV-D26 pre-protein VI (pVIn) (peptide) | – | 2 and 3
